Test results published in US20140087995A1 (published 2014).
Read-outs that look alike come from different tables or passages of the source. Each block holds one binder with its values, some of them ahead of it. Numbered stars: 1 amine (or outer) side, 2 acyl side, 3 side chain; on linkers, the order of the positions; unused ones are H or OH. Bridge positions count the residues as written; N and C are the ends. Side chains are listed from the residue outwards. Ends that are not written are not given here. * marks the point of attachment. C20 diacid = O=C(O)CCCCCCCCCCCCCCCCCCC(=O)*; γGlu = O=C(O)[C@H](CCC(=O)[*:2])N[*:1]

Key:
[1] = target: T1, human amylin receptor (amylin 3(a) receptor: human calcitonin receptor plus RAMP-3) (human, UniProt P30988 25-474; O60896 24-148, limits assumed); assay: SPA competition binding, displacement of 125I-rat amylin from membranes of BHK cells with human calcitonin receptor + RAMP-3 (Assay V)
T1 construct: whole, on cells; Whole cells in the luciferase assay (Assay II a); also called hAmylin-R; hAmylinR
T1 sequence (looked up) 1: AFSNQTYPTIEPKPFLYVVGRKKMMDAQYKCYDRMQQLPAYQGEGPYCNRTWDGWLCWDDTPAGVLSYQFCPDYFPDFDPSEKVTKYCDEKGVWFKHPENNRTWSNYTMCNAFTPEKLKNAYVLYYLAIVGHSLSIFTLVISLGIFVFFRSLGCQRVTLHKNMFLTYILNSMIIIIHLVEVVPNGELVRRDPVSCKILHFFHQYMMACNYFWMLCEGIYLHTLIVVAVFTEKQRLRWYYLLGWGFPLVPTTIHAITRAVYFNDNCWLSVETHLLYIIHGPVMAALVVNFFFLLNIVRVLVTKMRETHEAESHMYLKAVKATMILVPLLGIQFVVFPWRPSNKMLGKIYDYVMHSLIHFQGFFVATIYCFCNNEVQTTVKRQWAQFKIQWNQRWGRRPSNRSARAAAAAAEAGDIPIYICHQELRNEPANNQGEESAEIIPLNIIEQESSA
T1 sequence (looked up) 2: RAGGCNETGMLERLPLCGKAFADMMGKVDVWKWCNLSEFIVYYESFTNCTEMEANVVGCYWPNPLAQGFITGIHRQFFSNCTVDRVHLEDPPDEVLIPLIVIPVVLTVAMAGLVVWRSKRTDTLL
Procedure, shortened: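 SPA beads with BHK Amylin 3(a)/CRE-luc cell membranes (35 ng/μL final) in 50 mM Hepes pH 7.4, 1 mM CaCl2, 5 mM MgCl₂, 0.1% OA, 0.02% Tween20.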

[2] = target: T2, human calcitonin receptor (human, UniProt P30988 25-474); assay: cell-based or functional assay
T2 sequence (looked up): T1 sequence (looked up) 1

[3] = target: T1, human amylin receptor (amylin 3(a) …); assay: cell-based or functional assay
[4] = target: T3, human amylin 3(a) receptor (human calcitonin receptor co-expressed with RAMP-3) (human, UniProt P30988 25-474; O60896 24-148, limits assumed); assay: SPA competition binding, membranes of Amylin 3(a)/CRE-luc BHK cells, displacement of 125I-rat amylin (Assay (V))
T3 construct: whole, on cells; Whole cells in the luciferase assay (Assay (II)a); also called hAmylin-R; hAmylinR
T3 sequence (looked up) 1: T1 sequence (looked up) 1
T3 sequence (looked up) 2: T1 sequence (looked up) 2
Method: The binding assay was performed using scintillation proximity assay (SPA) beads (RPNQ0001) from PerkinElmer and cell membranes from the Amylin 3(a)/CRE-luc cells (as described in Assay (II)) were used. Membranes were prepared in the following way; the cells were rinsed with PBS and incubated with Versene for approximately 5 min before harvesting. The cells were flushed with PBS and the cell-suspension was centrifuged for 5 min at 1000 rpm. Cells were homogenized (ultrathurrax) in a buffer containing 20 mM Na-HEPES and 10 mM EDTA (pH 7.4) and centrifuged at 20.000 rpm for 15 min. The resulting pellet was resuspended, homogenized and centrifuged (20.000 rpm, 15 min) in a buffer containing 20 mM Na-HEPES and 0.1 mM EDTA (pH 7.4, buffer 2). The resulting pellet was resuspended in buffer 2 and protein concentration was measured (BCA protein Assay, Pierce). The homogenate was kept cold during the whole procedure. The membranes were kept at −80° C. until use. The assay was performed in a 384 well Optiplate (PerkinElmer) in a total volume of 40 ul. Membranes were mixed with SPA beads. Final concentration of membranes 35 ng/μL final and SPA beads was 0.05 mg/well. Test-compounds were dissolved in DMSO and further diluted in assay buffer (50 mM Hepes, pH 7.4, 1 mM CaCl2, 5 mM MgCl₂, 0.1% OA and 0.02% Tween20). […] The final mixture was incubated with shaking at 400 rpm for 120 min at 25° C. prior to centrifugation (1500 rpm, 10 min). Samples were analyzed on TopCounter™ (Packard). The IC₅₀ was calculated using (one site binding competition analysis) GraphPad Prism5 as a measure of receptor affinity.

[5] = target: T3, human amylin 3(a) receptor (human …); assay: cell-based or functional assay
[6] = target: T4, human calcitonin receptor (human, UniProt P30988 25-474); assay: cell-based or functional assay; remark: listed apart in the source
T4 sequence (looked up): T1 sequence (looked up) 1

B3: N^α1-[(4S)-4-carboxy-4-(19-carboxynonadecanoylamino)butanoyl]-[Glu14,Arg17,Pro21,Pro27,His34]-h-amylin (peptide)
peptide: {C20 diacid-γGlu}-KCNTATCATQRLAEFLRHSSPNFGAIPSSTNVGHNTY-NH2
modifications: disulfide 2-7
SMILES: CC[C@H](C)[C@H](NC(=O)[C@H](C)NC(=O)CNC(=O)[C@H](Cc1ccccc1)NC(=O)[C@H](CC(N)=O)NC(=O)[C@@H]1CCCN1C(=O)[C@H](CO)NC(=O)[C@H](CO)NC(=O)[C@H](Cc1c[nH]cn1)NC(=O)[C@H](CCCNC(=N)N)NC(=O)[C@H](CC(C)C)NC(=O)[C@H](Cc1ccccc1)NC(=O)[C@H](CCC(=O)O)NC(=O)[C@H](C)NC(=O)[C@H](CC(C)C)NC(=O)[C@H](CCCNC(=N)N)NC(=O)[C@H](CCC(N)=O)NC(=O)[C@@H](NC(=O)[C@H](C)NC(=O)[C@@H]1CSSC[C@H](NC(=O)[C@H](CCCCN)NC(=O)CC[C@H](NC(=O)CCCCCCCCCCCCCCCCCCC(=O)O)C(=O)O)C(=O)N[C@@H](CC(N)=O)C(=O)N[C@@H]([C@@H](C)O)C(=O)N[C@@H](C)C(=O)N[C@@H]([C@@H](C)O)C(=O)N1)[C@@H](C)O)C(=O)N1CCC[C@H]1C(=O)N[C@@H](CO)C(=O)N[C@@H](CO)C(=O)N[C@H](C(=O)N[C@@H](CC(N)=O)C(=O)N[C@H](C(=O)NCC(=O)N[C@@H](Cc1c[nH]cn1)C(=O)N[C@@H](CC(N)=O)C(=O)N[C@H](C(=O)N[C@@H](Cc1ccc(O)cc1)C(N)=O)[C@@H](C)O)C(C)C)[C@@H](C)O
notes: Synthetic acylated analogue of human amylin; also called compound 17
IC50 [1]: 0.878 nM
hCTR funct. EC50 [2]: 2.35 nM
Ratio hCT/hAmylin funct. [3]: 8.8 ratio
hAmylin-R funct. EC50 [3]: 0.268 nM

B4: N^ε1-[(4S)-4-carboxy-4-[[(4S)-4-carboxy-4-(19-carboxynonadecanoylamino)butanoyl]amino]butanoyl]-[Glu14,Arg17,Pro21,Pro27,Pro34,Glu35]-h-amylin (peptide)
peptide: K([γGlu-γGlu-C20 diacid])CNTATCATQRLAEFLRHSSPNFGAIPSSTNVGPETY-NH2
modifications: disulfide 2-7; N-terminus assumed
SMILES: CC[C@H](C)[C@H](NC(=O)[C@H](C)NC(=O)CNC(=O)[C@H](Cc1ccccc1)NC(=O)[C@H](CC(N)=O)NC(=O)[C@@H]1CCCN1C(=O)[C@H](CO)NC(=O)[C@H](CO)NC(=O)[C@H](Cc1c[nH]cn1)NC(=O)[C@H](CCCNC(=N)N)NC(=O)[C@H](CC(C)C)NC(=O)[C@H](Cc1ccccc1)NC(=O)[C@H](CCC(=O)O)NC(=O)[C@H](C)NC(=O)[C@H](CC(C)C)NC(=O)[C@H](CCCNC(=N)N)NC(=O)[C@H](CCC(N)=O)NC(=O)[C@@H](NC(=O)[C@H](C)NC(=O)[C@@H]1CSSC[C@H](NC(=O)[C@@H](N)CCCCNC(=O)CC[C@H](NC(=O)CC[C@H](NC(=O)CCCCCCCCCCCCCCCCCCC(=O)O)C(=O)O)C(=O)O)C(=O)N[C@@H](CC(N)=O)C(=O)N[C@@H]([C@@H](C)O)C(=O)N[C@@H](C)C(=O)N[C@@H]([C@@H](C)O)C(=O)N1)[C@@H](C)O)C(=O)N1CCC[C@H]1C(=O)N[C@@H](CO)C(=O)N[C@@H](CO)C(=O)N[C@H](C(=O)N[C@@H](CC(N)=O)C(=O)N[C@H](C(=O)NCC(=O)N1CCC[C@H]1C(=O)N[C@@H](CCC(=O)O)C(=O)N[C@H](C(=O)N[C@@H](Cc1ccc(O)cc1)C(N)=O)[C@@H](C)O)C(C)C)[C@@H](C)O
IC50 [4]: 0.121 nM
hAmylin-R funct. EC50 [5]: 0.225 nM
Ratio hCT/hAmylin funct. [6]: 10.5
hCTR funct. EC50 [6]: 2.36 nM

The remaining binders from weak to strong by IC50 [1], led by results:

IC50 [1]: 0.577 nM
hCTR funct. EC50 [2]: 0.857 nM
Ratio hCT/hAmylin funct. [3]: 8.7 ratio
hAmylin-R funct. EC50 [3]: 0.099 nM
B1: N^α1-[(4S)-4-carboxy-4-(19-carboxynonadecanoylamino)butanoyl]-[Arg17,Pro21,Pro27,Pro34,Glu35]-h-amylin (peptide)
peptide: {C20 diacid-γGlu}-KCNTATCATQRLANFLRHSSPNFGAIPSSTNVGPETY-NH2
modifications: disulfide 2-7
SMILES: CC[C@H](C)[C@H](NC(=O)[C@H](C)NC(=O)CNC(=O)[C@H](Cc1ccccc1)NC(=O)[C@H](CC(N)=O)NC(=O)[C@@H]1CCCN1C(=O)[C@H](CO)NC(=O)[C@H](CO)NC(=O)[C@H](Cc1c[nH]cn1)NC(=O)[C@H](CCCNC(=N)N)NC(=O)[C@H](CC(C)C)NC(=O)[C@H](Cc1ccccc1)NC(=O)[C@H](CC(N)=O)NC(=O)[C@H](C)NC(=O)[C@H](CC(C)C)NC(=O)[C@H](CCCNC(=N)N)NC(=O)[C@H](CCC(N)=O)NC(=O)[C@@H](NC(=O)[C@H](C)NC(=O)[C@@H]1CSSC[C@H](NC(=O)[C@H](CCCCN)NC(=O)CC[C@H](NC(=O)CCCCCCCCCCCCCCCCCCC(=O)O)C(=O)O)C(=O)N[C@@H](CC(N)=O)C(=O)N[C@@H]([C@@H](C)O)C(=O)N[C@@H](C)C(=O)N[C@@H]([C@@H](C)O)C(=O)N1)[C@@H](C)O)C(=O)N1CCC[C@H]1C(=O)N[C@@H](CO)C(=O)N[C@@H](CO)C(=O)N[C@H](C(=O)N[C@@H](CC(N)=O)C(=O)N[C@H](C(=O)NCC(=O)N1CCC[C@H]1C(=O)N[C@@H](CCC(=O)O)C(=O)N[C@H](C(=O)N[C@@H](Cc1ccc(O)cc1)C(N)=O)[C@@H](C)O)C(C)C)[C@@H](C)O
notes: Synthetic acylated analogue of human amylin; also called compound 29

IC50 [1]: 0.1 nM
hCTR funct. EC50 [2]: 0.327 nM
Ratio hCT/hAmylin funct. [3]: 6.6 ratio
hAmylin-R funct. EC50 [3]: 0.05 nM
B2: N^α1-[(4S)-4-carboxy-4-(19-carboxynonadecanoylamino)butanoyl]-[Glu14,Arg17,Pro21,Pro27,Pro34]-h-amylin (peptide)
peptide: {C20 diacid-γGlu}-KCNTATCATQRLAEFLRHSSPNFGAIPSSTNVGPNTY-NH2
modifications: disulfide 2-7
SMILES: CC[C@H](C)[C@H](NC(=O)[C@H](C)NC(=O)CNC(=O)[C@H](Cc1ccccc1)NC(=O)[C@H](CC(N)=O)NC(=O)[C@@H]1CCCN1C(=O)[C@H](CO)NC(=O)[C@H](CO)NC(=O)[C@H](Cc1c[nH]cn1)NC(=O)[C@H](CCCNC(=N)N)NC(=O)[C@H](CC(C)C)NC(=O)[C@H](Cc1ccccc1)NC(=O)[C@H](CCC(=O)O)NC(=O)[C@H](C)NC(=O)[C@H](CC(C)C)NC(=O)[C@H](CCCNC(=N)N)NC(=O)[C@H](CCC(N)=O)NC(=O)[C@@H](NC(=O)[C@H](C)NC(=O)[C@@H]1CSSC[C@H](NC(=O)[C@H](CCCCN)NC(=O)CC[C@H](NC(=O)CCCCCCCCCCCCCCCCCCC(=O)O)C(=O)O)C(=O)N[C@@H](CC(N)=O)C(=O)N[C@@H]([C@@H](C)O)C(=O)N[C@@H](C)C(=O)N[C@@H]([C@@H](C)O)C(=O)N1)[C@@H](C)O)C(=O)N1CCC[C@H]1C(=O)N[C@@H](CO)C(=O)N[C@@H](CO)C(=O)N[C@H](C(=O)N[C@@H](CC(N)=O)C(=O)N[C@H](C(=O)NCC(=O)N1CCC[C@H]1C(=O)N[C@@H](CC(N)=O)C(=O)N[C@H](C(=O)N[C@@H](Cc1ccc(O)cc1)C(N)=O)[C@@H](C)O)C(C)C)[C@@H](C)O
notes: Synthetic acylated analogue of human amylin; also called compound 32
